In US20190060473A1, “HSP90 INHIBITOR DRUG CONJUGATES” (priority 2016, published 2019):
Read-outs that look alike come from different tables or passages of the source.

Legend:
[1] = Metabolic stability in mouse whole blood (LC-MS/MS); type: in vitro ADME; settings: for Mouse blood stability 1 h (% remaining): 10 μM
Experimental: Metabolic stability of various HDCs was tested in mouse blood. All compounds were tested at a concentration of 10 μM. The time dependent disappearance of test compound in mouse whole blood, and the release of the compound qualitatively as determined by liquid chromatography tandem mass spectrometry (LC-MS/MS), was tested at time points of 15 minutes, 30 minutes, 45 minutes and 1 hour. All compounds were tested in duplicate, and the average was taken. The results in Table 2 show the percent of test compound remaining after 1 hour.

[2] = test system: HER2 expression in BT-474 human breast cancer cells; assay: In-Cell Western assay (ICW) for HER2 expression in BT-474 cells; type: cell-based
Experimental: The HDCs as described herein were used in various experiments to determine their activity and properties, such as binding affinity and stability in blood. An in-Cell Western assay (ICW) for HER2 expression was carried out in BT-474 human breast cancer cells. BT-474 cells were seeded in 96-well plates at a density of 20,000 cells per well. Twenty-four hours after plating, cells were dosed with graded concentrations of HDCs using 3-fold serial dilutions and incubated for 24 h. Growth media containing drug was aspirated off. Cells were then fixed in 4% paraformaldehyde for 20 min and washed three times in 0.1% Triton X-100. After blocking for 1.5 h in Odyssey Blocking Buffer (LI-COR, Lincoln, Nebr., USA), cells were incubated with primary HER2 antibody overnight at 4° C. Wells were washed three times with 0.1% Tween-20 and incubated in secondary antibody (LI-COR, Lincoln, Nebr., USA) and DRAQ5 (CST, Beverly, Mass., USA) for 1 h. Following 3 final washes with 0.1% Tween-20, antibody-antigen complexes were visualized using the Odyssey system. For quantification, HER2 signal was normalized to DRAQ5 flourescent probe.

[3] = mouse whole blood, percent of test compound remaining after 1 hour, average of duplicate
[4] = BT-474 cells, 24 h incubation, 3-fold serial dilutions, HER2 signal normalized to DRAQ5, read-out: HER2 (ICW)

| SMILES | Mouse blood stability 1 h (% remaining) [1, 3] [%] | IC50 [2, 4] [nM] | other results |
| --- | --- | --- | --- |
| CC(C)Nc1cc(-c2c[nH]c(C(=O)N[C@H](COC(=O)C3(NC(=O)C4CCN(Cc5ccc(-n6c(O)nnc6-c6cc(C(C)C)c(O)cc6O)cc5F)CC4)CC3)c3cccc(Cl)c3)c2)c(Cl)cn1 [SDC-TRAP-0509, (S)-2-(4-(5-chloro-2-(isopropylamino)pyridin-4-yl)-1H-pyrrole-2-carboxamido)-2-(3-chlorophenyl)ethyl 1-(1-(4-(3-(2,4-dihydroxy-5-isopropylphenyl)-5-hydroxy-4H-1,2,4-triazol-4-yl)-2-fluorobenzyl)piperidine-4-carboxamido)cyclopropanecarboxylate] | 86.9 | 2690 |  |
| CCNC(=O)c1nnc(-c2cc(C(C)C)c(O)cc2O)n1-c1ccc(N(C)C2CCN(C(=O)CCC(=O)OC[C@H](O)Cn3cnc4c(c(Nc5ccc(I)cc5F)c(F)c(=O)n4C)c3=O)CC2)nc1 [SDC-TRAP-0525, (R)-3-(6-fluoro-5-((2-fluoro-4-iodophenyl)amino)-8-methyl-4,7-dioxo-7,8-dihydropyrido[2,3-d]pyrimidin-3(4H)-yl)-2-hydroxypropyl 4-(4-((5-(3-(2,4-dihydroxy-5-isopropylphenyl)-5-(ethylcarbamoyl)-4H-1,2,4-triazol-4-yl)pyridin-2-yl)(methyl)amino)piperidin-1-yl)-4-oxobutanoate] | 10.8 |  |  |
| CCNC(=O)c1nnc(-c2cc(C(C)C)c(O)cc2O)n1-c1ccc(C(=O)N[C@H](C(=O)N[C@@H](CCCNC(N)=O)C(=O)N(C)[C@@H](C(=O)N[C@H](C(=O)N(C)C([C@@H](C)CC)[C@@H](CC(=O)N2CCC[C@@H]2[C@@H](OC)[C@@H](C)C(=O)N[C@@H](C)[C@H](O)c2ccccc2)OC)C(C)C)C(C)C)C(C)C)cc1 (stereo partly drawn) [SDC-TRAP-0540, 4-(4-(((3R,7S,10R,13S,16S)-4-((S)-sec-butyl)-3-(2-((R)-2-((1S,2R)-3-(((1R,2S)-1-hydroxy-1-phenylpropan-2-yl)amino)-1-methoxy-2-methyl-3-oxopropyl)pyrrolidin-1-yl)-2-oxoethyl)-7,10-diisopropyl-5,11,17-trimethyl-6,9,12,15-tetraoxo-13-(3-ureidopropyl)-2-oxa-5,8,11,14-tetraazaoctadecan-16-yl)carbamoyl)phenyl)-5-(2,4-dihydroxy-5-isopropylphenyl)-N-ethyl-4H-1,2,4-triazole-3-carboxamide] |  |  | remaining at 1 h, 10 μM [1, 3]: 55.5% |
| CCNC(=O)c1nnc(-c2cc(C(C)C)c(O)cc2O)n1-c1ccc(CN2CCC(C(=O)N3CCC(CC(=O)OC[C@@H](NC(=O)c4cc(-c5cc(NC(C)C)ncc5Cl)c[nH]4)c4cccc(Cl)c4)CC3)CC2)c(F)c1 [SDC-TRAP-0512, (S)-2-(4-(5-chloro-2-(isopropylamino)pyridin-4-yl)-1H-pyrrole-2-carboxamido)-2-(3-chlorophenyl)ethyl 2-(1-(1-(4-(3-(2,4-dihydroxy-5-isopropylphenyl)-5-(ethylcarbamoyl)-4H-1,2,4-triazol-4-yl)-2-fluorobenzyl)piperidine-4-carbonyl)piperidin-4-yl)acetate] | 100 | 60 |  |
| CC(C)Nc1cc(-c2c[nH]c(C(=O)N[C@H](COC(=O)C3(NC(=O)CCn4ccc5cc(-n6c(O)nnc6-c6cc(C(C)C)c(O)cc6O)ccc54)CC3)c3cccc(Cl)c3)c2)c(Cl)cn1 [SDC-TRAP-0508, (S)-2-(4-(5-chloro-2-(isopropylamino)pyridin-4-yl)-1H-pyrrole-2-carboxamido)-2-(3-chlorophenyl)ethyl 1-(3-(5-(3-(2,4-dihydroxy-5-isopropylphenyl)-5-hydroxy-4H-1,2,4-triazol-4-yl)-1H-indol-1-yl)propanamido)cyclopropanecarboxylate] |  | 2330 | Mouse blood stability 1 h (% remaining) ([1]; mouse, blood, 1 h): 32.4% |
| CCNC(=O)c1nnc(-c2cc(C(C)C)c(O)cc2O)n1-c1ccc(CN2CCC(C(=O)NC3(C(=O)OC[C@@H](NC(=O)c4cc(-c5cc(NC(C)C)ncc5Cl)c[nH]4)c4cccc(Cl)c4)CC3)CC2)c(F)c1 [SDC-TRAP-0507, (S)-2-(4-(5-chloro-2-(isopropylamino)pyridin-4-yl)-1H-pyrrole-2-carboxamido)-2-(3-chlorophenyl)ethyl-(1-(4-(3-(2,4-dihydroxy-5-isopropylphenyl)-5-(ethylcarbamoyl)-4H-1,2,4-triazol-4-yl)-2-fluorobenzyl)piperidine-4-carboxamido)cyclopropanecarboxylate] | 105 | 304 |  |
| CCNC(=O)c1nnc(-c2cc(C(C)C)c(O)cc2O)n1-c1ccc(C(=O)N[C@H](C(=O)N[C@@H](CC(C)C)C(=O)N(C)[C@@H](C(=O)N[C@H](C(=O)N(C)C([C@@H](C)CC)[C@@H](CC(=O)N2CCC[C@@H]2[C@@H](OC)[C@@H](C)C(=O)N[C@@H](C)[C@H](O)c2ccccc2)OC)C(C)C)C(C)C)C(C)C)cc1 (stereo partly drawn) [SDC-TRAP-0538, 4-(4-(((3R,7S,10R,13S,16S)-4-((S)-sec-butyl)-3-(2-((R)-2-((1S,2R)-3-(((1R,2S)-1-hydroxy-1-phenylpropan-2-yl)amino)-1-methoxy-2-methyl-3-oxopropyl)pyrrolidin-1-yl)-2-oxoethyl)-13-isobutyl-7,10-diisopropyl-5,11,17-trimethyl-6,9,12,15-tetraoxo-2-oxa-5,8,11,14-tetraazaoctadecan-16-yl)carbamoyl)phenyl)-5-(2,4-dihydroxy-5-isopropylphenyl)-N-ethyl-4H-1,2,4-triazole-3-carboxamide] |  |  | remaining at 1 h, 10 μM [1, 3]: 118% |
| CCNC(=O)c1nnc(-c2cc(C(C)C)c(O)cc2O)n1-c1ccc(CN2CCC(C(=O)OC[C@@H](NC(=O)c3cc(-c4cc(NC(C)C)ncc4Cl)c[nH]3)c3cccc(Cl)c3)CC2)c(F)c1 [SDC-TRAP-0518, (S)-2-(4-(5-chloro-2-(isopropylamino)pyridin-4-yl)-1H-pyrrole-2-carboxamido)-2-(3-chlorophenyl)ethyl 1-(4-(3-(2,4-dihydroxy-5-isopropylphenyl)-5-(ethylcarbamoyl)-4H-1,2,4-triazol-4-yl)-2-fluorobenzyl)piperidine-4-carboxylate] |  | 104 |  |
| CC(C)Nc1cc(-c2c[nH]c(C(=O)N[C@H](COC(=O)[C@@H](C)NC(=O)C3CCN(Cc4ccc(-n5c(O)nnc5-c5cc(C(C)C)c(O)cc5O)cc4F)CC3)c3cccc(Cl)c3)c2)c(Cl)cn1 [SDC-TRAP-0519] |  | 1650 |  |
| CCNC(=O)c1nnc(-c2cc(C(C)C)c(O)cc2O)n1-c1ccc(C(=O)N[C@@H](CC(C)C)C(=O)N[C@@H](CC(C)C)C(=O)N(C)[C@@H](C(=O)N[C@H](C(=O)N(C)C([C@@H](C)CC)[C@@H](CC(=O)N2CCC[C@@H]2[C@@H](OC)[C@@H](C)C(=O)N[C@@H](C)[C@H](O)c2ccccc2)OC)C(C)C)C(C)C)cc1 (stereo partly drawn) [SDC-TRAP-0539, 4-(4-(((3R,7S,10R,13S,16S)-4-((S)-sec-butyl)-3-(2-((R)-2-((1S,2R)-3-(((1R,2S)-1-hydroxy-1-phenylpropan-2-yl)amino)-1-methoxy-2-methyl-3-oxopropyl)pyrrolidin-1-yl)-2-oxoethyl)-13-isobutyl-7,10-diisopropyl-5,11,18-trimethyl-6,9,12,15-tetraoxo-2-oxa-5,8,11,14-tetraazanonadecan-16-yl)carbamoyl)phenyl)-5-(2,4-dihydroxy-5-isopropylphenyl)-N-ethyl-4H-1,2,4-triazole-3-carboxamide] |  |  | remaining at 1 h, 10 μM [1, 3]: 106% |
| CCNC(=O)c1nnc(-c2cc(C(C)C)c(O)cc2O)n1-c1ccc(CN2CCC(C(=O)NC(C)(C)C(=O)OC[C@@H](NC(=O)c3cc(-c4cc(NC(C)C)ncc4Cl)c[nH]3)c3cccc(Cl)c3)CC2)c(F)c1 [SDC-TRAP-0514, (S)-2-(4-(5-chloro-2-(isopropylamino)pyridin-4-yl)-1H-pyrrole-2-carboxamido)-2-(3-chlorophenyl)ethyl 2-(1-(4-(3-(2,4-dihydroxy-5-isopropylphenyl)-5-(ethylcarbamoyl)-4H-1,2,4-triazol-4-yl)-2-fluorobenzyl)piperidine-4-carboxamido)-2-methylpropanoate] | 105 | 345 |  |
| CC(C)c1cc(-c2n[nH]c(=O)n2-c2ccc3c(ccn3C)c2)c(O)cc1O [ganetespib, reference compound] |  |  | IC50 ([2]; Homo sapiens, BT-474, 24 h, read-out: HER2 (ICW, nM)): 37 nM |
| CC(C)c1cc(-c2nnc(O)n2-c2ccc(CN3CCC(C(=O)N4CC[C@H](C(=O)OC[C@H](O)Cn5cnc6c(c(Nc7ccc(I)cc7F)c(F)c(=O)n6C)c5=O)C4)CC3)c(F)c2)c(O)cc1O [SDC-TRAP-0528] | 0 |  |  |
| CC(C)Nc1cc(-c2c[nH]c(C(=O)N[C@H](COC(=O)C3CCN(Cc4ccc(-n5c(O)nnc5-c5cc(C(C)C)c(O)cc5O)cc4F)CC3)c3cccc(Cl)c3)c2)c(Cl)cn1 [SDC-TRAP-0517, (S)-2-(4-(5-chloro-2-(isopropylamino)pyridin-4-yl)-1H-pyrrole-2-carboxamido)-2-(3-chlorophenyl)ethyl 1-(4-(3-(2,4-dihydroxy-5-isopropylphenyl)-5-hydroxy-4H-1,2,4-triazol-4-yl)-2-fluorobenzyl)piperidine-4-carboxylate] |  | 202 |  |
